Assay results taken from patent US20240173398A1 (MAX PLANCK GESELLSCHAFT ZUR F RDERUNG DER WISSENSCHAFTEN E V, published 2024).
Residue numbers refer to the chain shown, from its start.

B1: VHH antibody Re9G12 (VHH)
VHH: QVQLVESGGGLVQAGGSLRLSCAASGRTFSSYVMGWFRQAPGKEREFVAHISWSGDSTYYADSVKGRFTIFRDNAKNTAYLQMNSLKPEDTAVYYCAADRGASYYYTWASEYNYWGQGTQVTVSS
B2: VHH antibody Re9D02 (VHH)
VHH: QVQLVESGGGLVQAGGSLRLSCAASGRTFSNYAMGWFRQAPGKEREFVAAISWGGDTTYYADSLKGRFTISRDNAKNTVYLQMNSLKPEDTAVYYCAADRGLSYYYDRVTEYDYWGQGTQVTVSS
B3: VHH antibody Re9C07 (VHH)
VHH: QVQLVESGGGLVQAGGSLRLSCAASGRTFSRYAMGWFRQAPGKEREFVAAITWNADTTYYADSVKGRFTISRDNAKNTVYLQMNSLKPEDTAVYYCAAGGNHYYSRSYYSSLEYDHWGQGTQVTVSS
B4: VHH antibody Re6A11 (VHH)
VHH: QVQLVESGGGLVQAGGSLRLSCAASGRTFSNDALGWFRQAPRKEREFVAAINWNSGTYYADSVKGRFTISRDNAKNTVYLQMNSLKPEDTAVYSCAAASDYGLPREDFLYDYWGQGTLVTVSS
B5: VHH antibody Re9F06 (VHH)
VHH: B4 VHH with L118Q
B6: VHH antibody Re11H04 (VHH)
VHH: QVQLVESGGGLVQPGGSLRLSCAASGFTLDYYTIAWFRQAPGKEREGVSCISGNDGSTYYADSVKGRFTISRDNAKNTVYLQMNSLKPEDTAVYYCAADRGESYYPFRPSEYHYWGQGTQVTVSS
B7: VHH antibody Re7E02 (VHH)
VHH: QVQLVESGGGLVQAGGSLRLSCAASGFTLDYYAIGWFRQAPGKEREGVSYIRSSDGTTYYADSVKGRFTISRDNAKNTVYLQMNSLKPEDTAVYYCAADEAYYSELGWESPWGWSYWGQGTQVTVSS
B8: VHH antibody Re6B07 (VHH)
VHH: B7 VHH with A14P, Q122R

Target: SARS-CoV-2 RBD (correctly folded, co-expressed with fold-promoting VHH in E. coli) (SARS-CoV-2, UniProt P0DTC2 330-527)
Experiment: co-expression in E. coli, co-purification and gel filtration

Binder	binding result
B1	binds
B2	binds
B3	binds
B4	binds
B5	binds
B6	binds
B7	binds
B8	binds
